From US20210403549A1

Target: low density lipoprotein (LDL) (UniProt P04114)
Experiment: bio-layer interferometry with LDL; beside the traces: clear dose-dependent binding

Chain of low density lipoprotein (LDL) (P04114 28-4563 limits assumed): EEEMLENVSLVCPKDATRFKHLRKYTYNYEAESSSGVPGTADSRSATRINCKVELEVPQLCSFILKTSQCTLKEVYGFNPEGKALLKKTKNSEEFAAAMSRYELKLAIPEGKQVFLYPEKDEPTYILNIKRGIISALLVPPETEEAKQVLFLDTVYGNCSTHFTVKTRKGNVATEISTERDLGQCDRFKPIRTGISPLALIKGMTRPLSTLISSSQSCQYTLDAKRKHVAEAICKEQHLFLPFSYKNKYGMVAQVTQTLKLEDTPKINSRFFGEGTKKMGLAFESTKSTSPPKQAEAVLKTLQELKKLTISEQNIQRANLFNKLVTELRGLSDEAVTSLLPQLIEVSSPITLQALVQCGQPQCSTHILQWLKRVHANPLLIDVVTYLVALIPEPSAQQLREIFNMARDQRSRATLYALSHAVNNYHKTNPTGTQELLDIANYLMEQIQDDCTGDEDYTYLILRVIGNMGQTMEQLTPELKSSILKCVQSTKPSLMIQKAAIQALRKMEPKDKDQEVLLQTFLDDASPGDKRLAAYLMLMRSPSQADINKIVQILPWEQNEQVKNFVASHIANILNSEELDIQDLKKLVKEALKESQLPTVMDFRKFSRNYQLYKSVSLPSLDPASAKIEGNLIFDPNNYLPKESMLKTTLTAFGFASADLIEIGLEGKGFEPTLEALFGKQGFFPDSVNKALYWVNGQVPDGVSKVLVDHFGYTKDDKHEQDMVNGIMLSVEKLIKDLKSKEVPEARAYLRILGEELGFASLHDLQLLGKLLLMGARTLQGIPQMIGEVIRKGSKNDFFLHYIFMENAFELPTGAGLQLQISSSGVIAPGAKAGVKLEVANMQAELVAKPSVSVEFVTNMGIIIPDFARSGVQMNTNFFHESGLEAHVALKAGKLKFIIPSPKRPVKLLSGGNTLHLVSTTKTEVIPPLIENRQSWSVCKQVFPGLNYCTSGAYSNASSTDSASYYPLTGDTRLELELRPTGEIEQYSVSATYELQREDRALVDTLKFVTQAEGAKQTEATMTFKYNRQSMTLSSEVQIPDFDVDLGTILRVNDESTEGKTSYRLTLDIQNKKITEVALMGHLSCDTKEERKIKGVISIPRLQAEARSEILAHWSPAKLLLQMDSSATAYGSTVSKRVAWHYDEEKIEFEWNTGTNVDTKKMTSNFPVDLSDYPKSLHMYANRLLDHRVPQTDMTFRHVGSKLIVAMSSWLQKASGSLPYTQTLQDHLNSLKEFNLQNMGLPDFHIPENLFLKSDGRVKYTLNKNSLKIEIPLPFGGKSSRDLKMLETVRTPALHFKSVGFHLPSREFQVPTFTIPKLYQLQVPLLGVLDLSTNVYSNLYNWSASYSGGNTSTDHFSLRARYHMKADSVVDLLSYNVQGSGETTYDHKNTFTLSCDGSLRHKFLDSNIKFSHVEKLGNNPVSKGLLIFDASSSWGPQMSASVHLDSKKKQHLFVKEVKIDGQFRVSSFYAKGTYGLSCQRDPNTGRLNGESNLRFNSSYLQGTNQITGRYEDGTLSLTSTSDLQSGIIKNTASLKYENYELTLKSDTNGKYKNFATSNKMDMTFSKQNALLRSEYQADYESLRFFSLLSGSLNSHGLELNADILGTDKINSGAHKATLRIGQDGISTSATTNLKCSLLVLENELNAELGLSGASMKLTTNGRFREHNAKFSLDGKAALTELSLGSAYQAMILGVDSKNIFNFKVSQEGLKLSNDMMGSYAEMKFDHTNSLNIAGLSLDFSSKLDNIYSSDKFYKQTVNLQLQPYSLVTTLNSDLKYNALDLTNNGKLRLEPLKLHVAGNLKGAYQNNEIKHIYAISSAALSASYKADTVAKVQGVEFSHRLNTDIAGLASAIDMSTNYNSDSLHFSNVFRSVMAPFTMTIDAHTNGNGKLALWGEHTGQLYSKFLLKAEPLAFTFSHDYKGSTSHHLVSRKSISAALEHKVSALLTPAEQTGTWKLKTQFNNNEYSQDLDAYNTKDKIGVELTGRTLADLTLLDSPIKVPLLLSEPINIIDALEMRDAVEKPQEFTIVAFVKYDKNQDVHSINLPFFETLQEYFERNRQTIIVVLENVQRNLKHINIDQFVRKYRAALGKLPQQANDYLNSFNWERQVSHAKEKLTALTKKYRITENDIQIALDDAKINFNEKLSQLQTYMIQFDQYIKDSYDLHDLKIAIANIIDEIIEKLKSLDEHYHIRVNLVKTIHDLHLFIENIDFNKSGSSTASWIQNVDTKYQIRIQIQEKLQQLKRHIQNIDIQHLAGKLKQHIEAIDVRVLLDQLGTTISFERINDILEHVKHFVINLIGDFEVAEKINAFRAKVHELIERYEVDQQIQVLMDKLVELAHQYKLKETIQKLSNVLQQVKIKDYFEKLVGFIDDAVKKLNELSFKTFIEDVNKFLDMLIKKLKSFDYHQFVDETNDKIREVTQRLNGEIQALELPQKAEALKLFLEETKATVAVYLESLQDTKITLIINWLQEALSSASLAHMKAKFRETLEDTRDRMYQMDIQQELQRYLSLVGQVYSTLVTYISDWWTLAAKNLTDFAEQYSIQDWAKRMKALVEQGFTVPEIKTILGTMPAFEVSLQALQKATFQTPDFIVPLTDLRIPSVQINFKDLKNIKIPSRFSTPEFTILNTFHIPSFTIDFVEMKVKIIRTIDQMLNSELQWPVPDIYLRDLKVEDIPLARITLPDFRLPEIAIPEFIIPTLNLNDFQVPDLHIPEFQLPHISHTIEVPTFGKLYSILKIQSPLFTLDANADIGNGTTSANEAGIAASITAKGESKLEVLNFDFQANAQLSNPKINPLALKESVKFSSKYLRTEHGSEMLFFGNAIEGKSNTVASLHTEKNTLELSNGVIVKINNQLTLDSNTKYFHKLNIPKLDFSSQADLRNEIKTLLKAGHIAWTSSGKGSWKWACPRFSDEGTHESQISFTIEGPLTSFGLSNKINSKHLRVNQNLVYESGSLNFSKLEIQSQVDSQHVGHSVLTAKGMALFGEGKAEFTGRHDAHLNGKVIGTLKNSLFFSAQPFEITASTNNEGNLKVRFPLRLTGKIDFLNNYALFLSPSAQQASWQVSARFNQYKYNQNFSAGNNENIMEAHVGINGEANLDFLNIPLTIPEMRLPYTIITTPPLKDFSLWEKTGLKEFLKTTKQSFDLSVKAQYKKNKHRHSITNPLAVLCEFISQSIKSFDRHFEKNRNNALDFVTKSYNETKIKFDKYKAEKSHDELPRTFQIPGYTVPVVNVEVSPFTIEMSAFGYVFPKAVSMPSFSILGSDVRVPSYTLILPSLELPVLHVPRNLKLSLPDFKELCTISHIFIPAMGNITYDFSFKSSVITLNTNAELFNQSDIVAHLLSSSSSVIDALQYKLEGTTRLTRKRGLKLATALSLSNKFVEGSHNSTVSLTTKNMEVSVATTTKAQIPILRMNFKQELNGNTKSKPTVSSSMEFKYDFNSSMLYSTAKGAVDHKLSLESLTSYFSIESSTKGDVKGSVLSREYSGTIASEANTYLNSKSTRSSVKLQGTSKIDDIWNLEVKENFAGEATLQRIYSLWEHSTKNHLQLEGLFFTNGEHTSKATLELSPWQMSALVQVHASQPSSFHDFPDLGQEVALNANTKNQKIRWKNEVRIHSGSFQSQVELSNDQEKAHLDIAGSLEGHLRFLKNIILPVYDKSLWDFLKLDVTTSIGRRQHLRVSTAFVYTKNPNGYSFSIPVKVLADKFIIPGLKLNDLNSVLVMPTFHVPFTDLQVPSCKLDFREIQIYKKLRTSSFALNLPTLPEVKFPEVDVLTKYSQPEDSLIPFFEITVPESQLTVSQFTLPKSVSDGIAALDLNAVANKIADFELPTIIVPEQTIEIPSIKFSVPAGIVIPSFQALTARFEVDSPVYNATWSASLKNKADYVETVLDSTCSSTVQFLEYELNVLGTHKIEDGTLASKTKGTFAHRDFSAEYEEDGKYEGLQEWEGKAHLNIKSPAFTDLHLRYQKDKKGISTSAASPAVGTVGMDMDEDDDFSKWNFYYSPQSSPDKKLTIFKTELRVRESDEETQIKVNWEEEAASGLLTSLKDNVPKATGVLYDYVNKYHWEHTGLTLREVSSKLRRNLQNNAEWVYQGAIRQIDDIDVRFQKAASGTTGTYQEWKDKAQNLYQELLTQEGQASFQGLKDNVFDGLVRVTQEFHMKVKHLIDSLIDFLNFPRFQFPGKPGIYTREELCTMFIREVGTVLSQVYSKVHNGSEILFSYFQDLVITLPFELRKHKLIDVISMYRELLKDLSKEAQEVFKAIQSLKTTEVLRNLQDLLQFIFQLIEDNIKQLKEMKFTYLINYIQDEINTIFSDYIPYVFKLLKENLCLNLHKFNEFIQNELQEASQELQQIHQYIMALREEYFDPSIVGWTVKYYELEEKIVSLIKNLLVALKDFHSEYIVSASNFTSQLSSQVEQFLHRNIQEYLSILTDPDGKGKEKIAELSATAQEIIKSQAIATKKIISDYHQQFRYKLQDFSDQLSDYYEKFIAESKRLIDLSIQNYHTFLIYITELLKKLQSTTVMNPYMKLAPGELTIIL

Kd: 525 nM
Substance: ALK1-E75A-hsIgG-Fc (Fc fusion)
